± gives the uncertainty stated by the source.
experiment: abundance fitness (aPCA) (normalised: wild type 0, dead -1); higher = more abundant; growth selection in yeast, the domain comes from the species named; settings: Homo sapiens

In order of falling abundance fitness:
1. E3 ubiquitin-protein ligase NEDD4-like P197K, Q96PU5  0.267 ± 0.094
2. E3 ubiquitin-protein ligase NEDD4-like Q187K, Q96PU5  0.243 ± 0.087
3. E3 ubiquitin-protein ligase NEDD4-like Q220S, Q96PU5  0.184 ± 0.065
4. E3 ubiquitin-protein ligase NEDD4-like P197I, Q96PU5  0.18 ± 0.11
5. E3 ubiquitin-protein ligase NEDD4-like Q185N, Q96PU5  0.154 ± 0.12
6. E3 ubiquitin-protein ligase NEDD4-like P197R, Q96PU5  0.093 ± 0.057
7. E3 ubiquitin-protein ligase NEDD4-like P197S, Q96PU5  0.073 ± 0.06
8. E3 ubiquitin-protein ligase NEDD4-like P197L, Q96PU5  0.048 ± 0.075
9. E3 ubiquitin-protein ligase NEDD4-like Q187F, Q96PU5  0.041 ± 0.07
10. E3 ubiquitin-protein ligase NEDD4-like P197E, Q96PU5  0.031 ± 0.074
11. E3 ubiquitin-protein ligase NEDD4-like Q187Y, Q96PU5  0.031 ± 0.1
12. E3 ubiquitin-protein ligase NEDD4-like P197A, Q96PU5  0.022 ± 0.071
13. E3 ubiquitin-protein ligase NEDD4-like Q187T, Q96PU5  0.016 ± 0.09
14. E3 ubiquitin-protein ligase NEDD4-like Q185Y, Q96PU5  0.011 ± 0.11
15. E3 ubiquitin-protein ligase NEDD4-like P197M, Q96PU5  0.006 ± 0.076
16. E3 ubiquitin-protein ligase NEDD4-like Q187N, Q96PU5  -0.001 ± 0.072
17. E3 ubiquitin-protein ligase NEDD4-like P197F, Q96PU5  -0.006 ± 0.061
18. E3 ubiquitin-protein ligase NEDD4-like P197V, Q96PU5  -0.009 ± 0.06
19. E3 ubiquitin-protein ligase NEDD4-like P196A, Q96PU5  -0.01 ± 0.07
20. E3 ubiquitin-protein ligase NEDD4-like P196M, Q96PU5  -0.011 ± 0.071
21. E3 ubiquitin-protein ligase NEDD4-like P197T, Q96PU5  -0.017 ± 0.087
22. E3 ubiquitin-protein ligase NEDD4-like Q185H, Q96PU5  -0.034 ± 0.081
23. E3 ubiquitin-protein ligase NEDD4-like Q185I, Q96PU5  -0.038 ± 0.11
24. E3 ubiquitin-protein ligase NEDD4-like P197Y, Q96PU5  -0.058 ± 0.08
25. E3 ubiquitin-protein ligase NEDD4-like Q220C, Q96PU5  -0.06 ± 0.071
26. E3 ubiquitin-protein ligase NEDD4-like Q187M, Q96PU5  -0.069 ± 0.092
27. E3 ubiquitin-protein ligase NEDD4-like P197Q, Q96PU5  -0.081 ± 0.099
28. E3 ubiquitin-protein ligase NEDD4-like Q220A, Q96PU5  -0.096 ± 0.057
29. E3 ubiquitin-protein ligase NEDD4-like P197H, Q96PU5  -0.097 ± 0.085
30. E3 ubiquitin-protein ligase NEDD4-like Q185D, Q96PU5  -0.097 ± 0.1
31. E3 ubiquitin-protein ligase NEDD4-like P196R, Q96PU5  -0.106 ± 0.063
32. E3 ubiquitin-protein ligase NEDD4-like P196L, Q96PU5  -0.126 ± 0.078
33. E3 ubiquitin-protein ligase NEDD4-like P196S, Q96PU5  -0.138 ± 0.068
34. E3 ubiquitin-protein ligase NEDD4-like Q185T, Q96PU5  -0.143 ± 0.1
35. E3 ubiquitin-protein ligase NEDD4-like Q187D, Q96PU5  -0.167 ± 0.097
36. E3 ubiquitin-protein ligase NEDD4-like P196V, Q96PU5  -0.184 ± 0.056
37. E3 ubiquitin-protein ligase NEDD4-like P196Q, Q96PU5  -0.217 ± 0.073
38. E3 ubiquitin-protein ligase NEDD4-like P196N, Q96PU5  -0.228 ± 0.11
39. E3 ubiquitin-protein ligase NEDD4-like P196D, Q96PU5  -0.231 ± 0.08
40. E3 ubiquitin-protein ligase NEDD4-like Q187V, Q96PU5  -0.233 ± 0.06
41. E3 ubiquitin-protein ligase NEDD4-like P197W, Q96PU5  -0.237 ± 0.089
42. E3 ubiquitin-protein ligase NEDD4-like P196T, Q96PU5  -0.239 ± 0.083
43. E3 ubiquitin-protein ligase NEDD4-like Q187S, Q96PU5  -0.242 ± 0.073
44. E3 ubiquitin-protein ligase NEDD4-like Q187I, Q96PU5  -0.247 ± 0.11
45. E3 ubiquitin-protein ligase NEDD4-like P197C, Q96PU5  -0.249 ± 0.095
46. E3 ubiquitin-protein ligase NEDD4-like P197D, Q96PU5  -0.25 ± 0.11
47. E3 ubiquitin-protein ligase NEDD4-like Q187A, Q96PU5  -0.256 ± 0.058
48. E3 ubiquitin-protein ligase NEDD4-like Q185F, Q96PU5  -0.257 ± 0.12
49. E3 ubiquitin-protein ligase NEDD4-like Q220D, Q96PU5  -0.258 ± 0.088
50. E3 ubiquitin-protein ligase NEDD4-like Q187L, Q96PU5  -0.287 ± 0.071
51. E3 ubiquitin-protein ligase NEDD4-like Q187R, Q96PU5  -0.298 ± 0.066
52. E3 ubiquitin-protein ligase NEDD4-like Q185V, Q96PU5  -0.332 ± 0.075
53. E3 ubiquitin-protein ligase NEDD4-like Q220N, Q96PU5  -0.354 ± 0.071
54. E3 ubiquitin-protein ligase NEDD4-like Q220M, Q96PU5  -0.362 ± 0.093
55. E3 ubiquitin-protein ligase NEDD4-like Q220I, Q96PU5  -0.371 ± 0.12
56. E3 ubiquitin-protein ligase NEDD4-like P196Y, Q96PU5  -0.384 ± 0.11
57. E3 ubiquitin-protein ligase NEDD4-like Q185K, Q96PU5  -0.398 ± 0.12
58. E3 ubiquitin-protein ligase NEDD4-like P196K, Q96PU5  -0.402 ± 0.11
59. E3 ubiquitin-protein ligase NEDD4-like P196H, Q96PU5  -0.413 ± 0.097
60. E3 ubiquitin-protein ligase NEDD4-like P196W, Q96PU5  -0.416 ± 0.057
61. E3 ubiquitin-protein ligase NEDD4-like Q185E, Q96PU5  -0.534 ± 0.097
62. E3 ubiquitin-protein ligase NEDD4-like Q185P, Q96PU5  -0.539 ± 0.12
63. E3 ubiquitin-protein ligase NEDD4-like Q185L, Q96PU5  -0.542 ± 0.081
64. E3 ubiquitin-protein ligase NEDD4-like Q220G, Q96PU5  -0.548 ± 0.071
65. E3 ubiquitin-protein ligase NEDD4-like P224K, Q96PU5  -0.552 ± 0.089
66. E3 ubiquitin-protein ligase NEDD4-like Q220E, Q96PU5  -0.555 ± 0.084
67. E3 ubiquitin-protein ligase NEDD4-like Q220R, Q96PU5  -0.557 ± 0.072
68. E3 ubiquitin-protein ligase NEDD4-like P196F, Q96PU5  -0.567 ± 0.098
69. E3 ubiquitin-protein ligase NEDD4-like P224E, Q96PU5  -0.612 ± 0.086
70. E3 ubiquitin-protein ligase NEDD4-like Q220F, Q96PU5  -0.618 ± 0.12
71. E3 ubiquitin-protein ligase NEDD4-like Q185R, Q96PU5  -0.633 ± 0.068
72. E3 ubiquitin-protein ligase NEDD4-like P224H, Q96PU5  -0.694 ± 0.17
73. E3 ubiquitin-protein ligase NEDD4-like P224S, Q96PU5  -0.711 ± 0.059
74. E3 ubiquitin-protein ligase NEDD4-like Q185G, Q96PU5  -0.723 ± 0.058
75. E3 ubiquitin-protein ligase NEDD4-like P224G, Q96PU5  -0.734 ± 0.065
76. E3 ubiquitin-protein ligase NEDD4-like Q220K, Q96PU5  -0.757 ± 0.12
77. E3 ubiquitin-protein ligase NEDD4-like P224A, Q96PU5  -0.765 ± 0.08
78. E3 ubiquitin-protein ligase NEDD4-like Q187E, Q96PU5  -0.767 ± 0.079
79. E3 ubiquitin-protein ligase NEDD4-like P224C, Q96PU5  -0.772 ± 0.11
80. E3 ubiquitin-protein ligase NEDD4-like P224D, Q96PU5  -0.772 ± 0.14
81. E3 ubiquitin-protein ligase NEDD4-like Q220H, Q96PU5  -0.775 ± 0.17
82. E3 ubiquitin-protein ligase NEDD4-like Q185C, Q96PU5  -0.793 ± 0.065
83. E3 ubiquitin-protein ligase NEDD4-like P224M, Q96PU5  -0.796 ± 0.11
84. E3 ubiquitin-protein ligase NEDD4-like Q187G, Q96PU5  -0.799 ± 0.07
85. E3 ubiquitin-protein ligase NEDD4-like P224T, Q96PU5  -0.828 ± 0.11
86. E3 ubiquitin-protein ligase NEDD4-like P224I, Q96PU5  -0.877 ± 0.18
87. E3 ubiquitin-protein ligase NEDD4-like Q220P, Q96PU5  -0.9 ± 0.078
88. E3 ubiquitin-protein ligase NEDD4-like Q187W, Q96PU5  -0.907 ± 0.073
89. E3 ubiquitin-protein ligase NEDD4-like P224L, Q96PU5  -0.93 ± 0.06
90. E3 ubiquitin-protein ligase NEDD4-like P224R, Q96PU5  -0.94 ± 0.056
91. E3 ubiquitin-protein ligase NEDD4-like P224V, Q96PU5  -1.01 ± 0.086
92. E3 ubiquitin-protein ligase NEDD4-like P224F, Q96PU5  -1.1 ± 0.21
93. E3 ubiquitin-protein ligase NEDD4-like P224N, Q96PU5  -1.15 ± 0.18
94. E3 ubiquitin-protein ligase NEDD4-like P224Y, Q96PU5  -1.18 ± 0.095
95. E3 ubiquitin-protein ligase NEDD4-like Q185S, Q96PU5  -1.18 ± 0.15

From the Human Domainome abundance scans (Beltran et al. 2025)
